Experimental data published in the supplement of paper PMC10567573.

B1: RTN2 (parent)
chain: SERPLEDLRLRLDHLGWVARGTGS
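Also: lentivirally expressed fusions sorted by FACS into six bins by GFP to DsRed ratio, PSI derived from sequencing read proportions per bin multiplied by bin number.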

Variants of: B1
Experiment: protein stability index of a GFP-peptide fusion (GPS, HEK-293T) (PSI 1-6); higher = more stable
Conditions: c terminus: a fixed tail appended
SERPLEDLRLRLDHLGWWARGTGS [V18W] showed a protein stability index of 2.8.
For SERPLEDLRLRLDHLGWKARGTGS [V18K], the protein stability index was 3.79.
With SERPLEDLRLRLDHLGWIARGTGS [V18I] the protein stability index was 3.5.
With SERPLEDLRLRLDHLGWYARGTGS [V18Y] the protein stability index was 2.67.
Variant SERPLEDLRLRLDHLGWMARGTGS [V18M] has a protein stability index of 3.73.
For SERPLEDLRLRLDHLGWPARGTGS [V18P], the protein stability index was 3.35.
With SERPLEDLRLRLDHLGWRARGTGS [V18R] the protein stability index was 4.14.
SERPLEDLRLRLDHLGWTARGTGS [V18T] gave a protein stability index of 2.86.
In the case of SERPLEDLRLRLDHLGWEARGTGS [V18E], the protein stability index is reported as 4.85.
Variant SERPLEDLRLRLDHLGWHARGTGS [V18H] has a protein stability index of 3.31.
For SERPLEDLRLRLDHLGWDARGTGS [V18D], the protein stability index was 4.31.
Work on SERPLEDLRGRLDHLGWVARGTGS [L10G] yielded a protein stability index of 3.89.
With SERPLEDLRERLDHLGWVARGTGS [L10E] the protein stability index was 3.15.
SERPLEDLRRRLDHLGWVARGTGS [L10R] gave a protein stability index of 2.19.
With SERPLEDLRTRLDHLGWVARGTGS [L10T] the protein stability index was 1.93.
SERPLEDLRMRLDHLGWVARGTGS [L10M] showed a protein stability index of 2.39.
For SERPLEDLRHRLDHLGWVARGTGS [L10H], the protein stability index was 2.38.
With SERPLEDLRKRLDHLGWVARGTGS [L10K] the protein stability index was 2.06.
With SERPLEDLRNRLDHLGWVARGTGS [L10N] the protein stability index was 2.69.
Variant SERPLEDLRPRLDHLGWVARGTGS [L10P] has a protein stability index of 1.74.
Variant SERPLEDLRDRLDHLGWVARGTGS [L10D] has a protein stability index of 2.72.
For SERPLEDLRCRLDHLGWVARGTGS [L10C], the protein stability index was 2.73.
Work on SERPLEDLRFRLDHLGWVARGTGS [L10F] yielded a protein stability index of 3.78.
Variant SERPLEDLRARLDHLGWVARGTGS [L10A] has a protein stability index of 2.46.
In the case of SERPLEDLRSRLDHLGWVARGTGS [L10S], the protein stability index is reported as 3.19.
Work on SERPLEDLRLRLDHLGNVARGTGS [W17N] yielded a protein stability index of 4.65.
In the case of SERPLEDLRLRLDHLGGVARGTGS [W17G], the protein stability index is reported as 4.08.
For SERPLEDLRLRLDHLGHVARGTGS [W17H], the protein stability index was 3.9.
SERPLEDLRLRLDHLGQVARGTGS [W17Q] showed a protein stability index of 4.42.
In the case of SERPLEDLRLRLDHLGAVARGTGS [W17A], the protein stability index is reported as 4.49.
In the case of SERPLEDLRLRLDHLGEVARGTGS [W17E], the protein stability index is reported as 4.11.
With SERPLEDLRLRLDHLGYVARGTGS [W17Y] the protein stability index was 3.48.
Variant SERPLEDLRLRLDHLGMVARGTGS [W17M] has a protein stability index of 3.49.
Work on SERPLEDLRLRLDHLIWVARGTGS [G16I] yielded a protein stability index of 1.75.
For SERPLEDLRLRLDHLWWVARGTGS [G16W], the protein stability index was 1.81.
For SERPLEDLRLRLDHLFWVARGTGS [G16F], the protein stability index was 1.98.
Variant SERPLEDLRLRLDHLEWVARGTGS [G16E] has a protein stability index of 3.03.
Variant SERPLEDLRLRLDHLAWVARGTGS [G16A] has a protein stability index of 2.58.
SERPLEDLRLRLDHLVWVARGTGS [G16V] showed a protein stability index of 1.55.
SERPLEDLRLRLDHLYWVARGTGS [G16Y] showed a protein stability index of 2.9.
SERPLEDLRLRLDHLPWVARGTGS [G16P] gave a protein stability index of 2.1.
With SERPLEDLRLRLDHLQWVARGTGS [G16Q] the protein stability index was 3.01.
Work on SERPLEDLRLRLDWLGWVARGTGS [H14W] yielded a protein stability index of 1.92.
With SERPLEDLRLRLDMLGWVARGTGS [H14M] the protein stability index was 2.47.
SERPLEDLRLRLDPLGWVARGTGS [H14P] gave a protein stability index of 2.54.
SERPLEDLRLRLDLLGWVARGTGS [H14L] gave a protein stability index of 1.93.
Work on SERPLEDLRLRLDQLGWVARGTGS [H14Q] yielded a protein stability index of 1.73.
With SERPLEDLRLRLDFLGWVARGTGS [H14F] the protein stability index was 1.51.
For SERPLEDLRLRLDTLGWVARGTGS [H14T], the protein stability index was 1.99.
With SERPLEDLRLRLDILGWVARGTGS [H14I] the protein stability index was 1.99.
SERPLEDLRLRLDELGWVARGTGS [H14E] showed a protein stability index of 2.61.
For SERPLEDLRLRLDRLGWVARGTGS [H14R], the protein stability index was 2.36.
In the case of SERPLEDLRLRLSHLGWVARGTGS [D13S], the protein stability index is reported as 3.31.
Work on SERPLEDLRLRLVHLGWVARGTGS [D13V] yielded a protein stability index of 2.88.
SERPLEDLRLRLCHLGWVARGTGS [D13C] gave a protein stability index of 2.43.
In the case of SERPLEDLRLRLGHLGWVARGTGS [D13G], the protein stability index is reported as 2.87.
SERPLEDLRLRLHHLGWVARGTGS [D13H] showed a protein stability index of 1.49.
Work on SERPLEDLRLRLYHLGWVARGTGS [D13Y] yielded a protein stability index of 2.07.
Variant SERPLEDLRLRLTHLGWVARGTGS [D13T] has a protein stability index of 2.34.
In the case of SERPLEDLRLRLFHLGWVARGTGS [D13F], the protein stability index is reported as 1.07.
Variant SERPLEDLRLRIDHLGWVARGTGS [L12I] has a protein stability index of 2.02.
With SERPLEDLRLRYDHLGWVARGTGS [L12Y] the protein stability index was 3.11.
For SERPLEDLRLRWDHLGWVARGTGS [L12W], the protein stability index was 2.38.
SERPLEDLRLRKDHLGWVARGTGS [L12K] gave a protein stability index of 3.13.
SERPLEDLRLRRDHLGWVARGTGS [L12R] gave a protein stability index of 2.16.
With SERPLEDLRLRTDHLGWVARGTGS [L12T] the protein stability index was 3.51.
For SERPLEDLRLRADHLGWVARGTGS [L12A], the protein stability index was 2.97.
Variant SERPLEDLRLRPDHLGWVARGTGS [L12P] has a protein stability index of 2.47.
With SLRPLEDLRLRLDHLGWVARGTGS [E2L] the protein stability index was 1.42.
In the case of SNRPLEDLRLRLDHLGWVARGTGS [E2N], the protein stability index is reported as 1.68.
Work on SIRPLEDLRLRLDHLGWVARGTGS [E2I] yielded a protein stability index of 2.12.
SSRPLEDLRLRLDHLGWVARGTGS [E2S] showed a protein stability index of 2.43.
Variant SYRPLEDLRLRLDHLGWVARGTGS [E2Y] has a protein stability index of 2.68.
Work on SERPIEDLRLRLDHLGWVARGTGS [L5I] yielded a protein stability index of 2.52.
For SERPTEDLRLRLDHLGWVARGTGS [L5T], the protein stability index was 2.38.
Variant SERPVEDLRLRLDHLGWVARGTGS [L5V] has a protein stability index of 4.48.
SERPMEDLRLRLDHLGWVARGTGS [L5M] gave a protein stability index of 2.46.
For SERPNEDLRLRLDHLGWVARGTGS [L5N], the protein stability index was 1.48.
SERPYEDLRLRLDHLGWVARGTGS [L5Y] showed a protein stability index of 2.53.
With SERPDEDLRLRLDHLGWVARGTGS [L5D] the protein stability index was 3.44.
Work on SERPSEDLRLRLDHLGWVARGTGS [L5S] yielded a protein stability index of 2.
SERPWEDLRLRLDHLGWVARGTGS [L5W] showed a protein stability index of 1.97.
With SERPFEDLRLRLDHLGWVARGTGS [L5F] the protein stability index was 3.45.
With SERPGEDLRLRLDHLGWVARGTGS [L5G] the protein stability index was 2.33.
Work on SERPPEDLRLRLDHLGWVARGTGS [L5P] yielded a protein stability index of 2.07.
For SERDLEDLRLRLDHLGWVARGTGS [P4D], the protein stability index was 2.53.
In the case of SERLLEDLRLRLDHLGWVARGTGS [P4L], the protein stability index is reported as 1.94.
Variant SERVLEDLRLRLDHLGWVARGTGS [P4V] has a protein stability index of 1.26.
Work on SERQLEDLRLRLDHLGWVARGTGS [P4Q] yielded a protein stability index of 2.95.
Variant SERWLEDLRLRLDHLGWVARGTGS [P4W] has a protein stability index of 1.73.
For SERKLEDLRLRLDHLGWVARGTGS [P4K], the protein stability index was 2.38.
Work on SERELEDLRLRLDHLGWVARGTGS [P4E] yielded a protein stability index of 2.61.
Variant SERRLEDLRLRLDHLGWVARGTGS [P4R] has a protein stability index of 1.59.
SERFLEDLRLRLDHLGWVARGTGS [P4F] gave a protein stability index of 3.68.
